Results from patent US20210388087A1 (Chugai, published 2021).

Target: T1, CD3 epsilon homodimer protein (UniProt P07766 23-126)
T1 construct: also called CD3 (CD3 epsilon)
Assay: SPR, antibody over immobilised CD3e homodimer;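 further: SPR at 25 °C with CD3 epsilon homodimer amine-coupled to a CM4 sensor chip and antibody flowed over as analyte in HBS-EP+ running buffer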

T1 sequence (P07766 23-126): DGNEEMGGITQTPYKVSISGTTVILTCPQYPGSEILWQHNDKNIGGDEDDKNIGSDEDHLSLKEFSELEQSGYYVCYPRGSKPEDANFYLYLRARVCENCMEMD

| Binder | KD ratio to GLS3000 |
| --- | --- |
| CE115HA000/GLS3000 Q93A (antibody, IgG1, name in Kabat numbering, V domains shown, one-arm IgG1) VH: QVQLVESGGGVVQPGRSLRLSCAASGFTFSNAWMHWVRQAPGKGLEWVAQIKAKSNNYATYYAESVKGRFTISRDDSKNSLYLQMNSLKTEDTAVYYCRYVHYGAYYGVDAWGQGTTVTVSS VL: DIVMTQSPLSLPVTPGEPASISCRSSQSLVHSNRNTYLHWYQQKPGQAPRLLIYKVSNRFSGVPDRFSGSGSGTDFTLKISRVEAEDVGVYYCGQGTAVPYTFGQGTKLEIK | 0.65 |
| CE115HA000/GLS3000 Q93S (antibody, IgG1, name in Kabat numbering, V domains shown, one-arm IgG1) VH: QVQLVESGGGVVQPGRSLRLSCAASGFTFSNAWMHWVRQAPGKGLEWVAQIKAKSNNYATYYAESVKGRFTISRDDSKNSLYLQMNSLKTEDTAVYYCRYVHYGAYYGVDAWGQGTTVTVSS VL: DIVMTQSPLSLPVTPGEPASISCRSSQSLVHSNRNTYLHWYQQKPGQAPRLLIYKVSNRFSGVPDRFSGSGSGTDFTLKISRVEAEDVGVYYCGQGTSVPYTFGQGTKLEIK | 0.75 |
| CE115HA000/GLS3000 Q93E (antibody, IgG1, name in Kabat numbering, V domains shown, one-arm IgG1) VH: QVQLVESGGGVVQPGRSLRLSCAASGFTFSNAWMHWVRQAPGKGLEWVAQIKAKSNNYATYYAESVKGRFTISRDDSKNSLYLQMNSLKTEDTAVYYCRYVHYGAYYGVDAWGQGTTVTVSS VL: DIVMTQSPLSLPVTPGEPASISCRSSQSLVHSNRNTYLHWYQQKPGQAPRLLIYKVSNRFSGVPDRFSGSGSGTDFTLKISRVEAEDVGVYYCGQGTEVPYTFGQGTKLEIK | 1.05 |
| CE115HA000/GLS3000 R24A (antibody, IgG1, name in Kabat numbering, V domains shown, one-arm IgG1) VH: QVQLVESGGGVVQPGRSLRLSCAASGFTFSNAWMHWVRQAPGKGLEWVAQIKAKSNNYATYYAESVKGRFTISRDDSKNSLYLQMNSLKTEDTAVYYCRYVHYGAYYGVDAWGQGTTVTVSS VL: DIVMTQSPLSLPVTPGEPASISCASSQSLVHSNRNTYLHWYQQKPGQAPRLLIYKVSNRFSGVPDRFSGSGSGTDFTLKISRVEAEDVGVYYCGQGTQVPYTFGQGTKLEIK | 1 |
| CE115HA000/GLS3000 Q93D (antibody, IgG1, name in Kabat numbering, V domains shown, one-arm IgG1) VH: QVQLVESGGGVVQPGRSLRLSCAASGFTFSNAWMHWVRQAPGKGLEWVAQIKAKSNNYATYYAESVKGRFTISRDDSKNSLYLQMNSLKTEDTAVYYCRYVHYGAYYGVDAWGQGTTVTVSS VL: DIVMTQSPLSLPVTPGEPASISCRSSQSLVHSNRNTYLHWYQQKPGQAPRLLIYKVSNRFSGVPDRFSGSGSGTDFTLKISRVEAEDVGVYYCGQGTDVPYTFGQGTKLEIK | 0.72 |
| CE115HA000/GLS3000 Q93R (antibody, IgG1, name in Kabat numbering, V domains shown, one-arm IgG1) VH: QVQLVESGGGVVQPGRSLRLSCAASGFTFSNAWMHWVRQAPGKGLEWVAQIKAKSNNYATYYAESVKGRFTISRDDSKNSLYLQMNSLKTEDTAVYYCRYVHYGAYYGVDAWGQGTTVTVSS VL: DIVMTQSPLSLPVTPGEPASISCRSSQSLVHSNRNTYLHWYQQKPGQAPRLLIYKVSNRFSGVPDRFSGSGSGTDFTLKISRVEAEDVGVYYCGQGTRVPYTFGQGTKLEIK | 0.79 |
| CE115HA000/GLS3000 Q93P (antibody, IgG1, name in Kabat numbering, V domains shown, one-arm IgG1) VH: QVQLVESGGGVVQPGRSLRLSCAASGFTFSNAWMHWVRQAPGKGLEWVAQIKAKSNNYATYYAESVKGRFTISRDDSKNSLYLQMNSLKTEDTAVYYCRYVHYGAYYGVDAWGQGTTVTVSS VL: DIVMTQSPLSLPVTPGEPASISCRSSQSLVHSNRNTYLHWYQQKPGQAPRLLIYKVSNRFSGVPDRFSGSGSGTDFTLKISRVEAEDVGVYYCGQGTPVPYTFGQGTKLEIK | 39.5 |
| CE115HA000/GLS3000 Q93Y (antibody, IgG1, name in Kabat numbering, V domains shown, one-arm IgG1) VH: QVQLVESGGGVVQPGRSLRLSCAASGFTFSNAWMHWVRQAPGKGLEWVAQIKAKSNNYATYYAESVKGRFTISRDDSKNSLYLQMNSLKTEDTAVYYCRYVHYGAYYGVDAWGQGTTVTVSS VL: DIVMTQSPLSLPVTPGEPASISCRSSQSLVHSNRNTYLHWYQQKPGQAPRLLIYKVSNRFSGVPDRFSGSGSGTDFTLKISRVEAEDVGVYYCGQGTYVPYTFGQGTKLEIK | 0.76 |

Other lines, results leading:

| KD ratio to GLS3000 | Binder |
| --- | --- |
| 0.34 | CE115HA000/GLS3000 R24P (antibody, IgG1, name in Kabat numbering, V domains shown, one-arm IgG1) VH: QVQLVESGGGVVQPGRSLRLSCAASGFTFSNAWMHWVRQAPGKGLEWVAQIKAKSNNYATYYAESVKGRFTISRDDSKNSLYLQMNSLKTEDTAVYYCRYVHYGAYYGVDAWGQGTTVTVSS VL: DIVMTQSPLSLPVTPGEPASISCPSSQSLVHSNRNTYLHWYQQKPGQAPRLLIYKVSNRFSGVPDRFSGSGSGTDFTLKISRVEAEDVGVYYCGQGTQVPYTFGQGTKLEIK |
| 0.83 | CE115HA000/GLS3000 R24D (antibody, IgG1, name in Kabat numbering, V domains shown, one-arm IgG1) VH: QVQLVESGGGVVQPGRSLRLSCAASGFTFSNAWMHWVRQAPGKGLEWVAQIKAKSNNYATYYAESVKGRFTISRDDSKNSLYLQMNSLKTEDTAVYYCRYVHYGAYYGVDAWGQGTTVTVSS VL: DIVMTQSPLSLPVTPGEPASISCDSSQSLVHSNRNTYLHWYQQKPGQAPRLLIYKVSNRFSGVPDRFSGSGSGTDFTLKISRVEAEDVGVYYCGQGTQVPYTFGQGTKLEIK |
| 0.89 | CE115HA000/GLS3000 R24E (antibody, IgG1, name in Kabat numbering, V domains shown, one-arm IgG1) VH: QVQLVESGGGVVQPGRSLRLSCAASGFTFSNAWMHWVRQAPGKGLEWVAQIKAKSNNYATYYAESVKGRFTISRDDSKNSLYLQMNSLKTEDTAVYYCRYVHYGAYYGVDAWGQGTTVTVSS VL: DIVMTQSPLSLPVTPGEPASISCESSQSLVHSNRNTYLHWYQQKPGQAPRLLIYKVSNRFSGVPDRFSGSGSGTDFTLKISRVEAEDVGVYYCGQGTQVPYTFGQGTKLEIK |
| 0.87 | CE115HA000/GLS3000 R24Q (antibody, IgG1, name in Kabat numbering, V domains shown, one-arm IgG1) VH: QVQLVESGGGVVQPGRSLRLSCAASGFTFSNAWMHWVRQAPGKGLEWVAQIKAKSNNYATYYAESVKGRFTISRDDSKNSLYLQMNSLKTEDTAVYYCRYVHYGAYYGVDAWGQGTTVTVSS VL: DIVMTQSPLSLPVTPGEPASISCQSSQSLVHSNRNTYLHWYQQKPGQAPRLLIYKVSNRFSGVPDRFSGSGSGTDFTLKISRVEAEDVGVYYCGQGTQVPYTFGQGTKLEIK |
| 0.92 | CE115HA000/GLS3000 R24G (antibody, IgG1, name in Kabat numbering, V domains shown, one-arm IgG1) VH: QVQLVESGGGVVQPGRSLRLSCAASGFTFSNAWMHWVRQAPGKGLEWVAQIKAKSNNYATYYAESVKGRFTISRDDSKNSLYLQMNSLKTEDTAVYYCRYVHYGAYYGVDAWGQGTTVTVSS VL: DIVMTQSPLSLPVTPGEPASISCGSSQSLVHSNRNTYLHWYQQKPGQAPRLLIYKVSNRFSGVPDRFSGSGSGTDFTLKISRVEAEDVGVYYCGQGTQVPYTFGQGTKLEIK |
| 1.03 | CE115HA000/GLS3000 R24T (antibody, IgG1, name in Kabat numbering, V domains shown, one-arm IgG1) VH: QVQLVESGGGVVQPGRSLRLSCAASGFTFSNAWMHWVRQAPGKGLEWVAQIKAKSNNYATYYAESVKGRFTISRDDSKNSLYLQMNSLKTEDTAVYYCRYVHYGAYYGVDAWGQGTTVTVSS VL: DIVMTQSPLSLPVTPGEPASISCTSSQSLVHSNRNTYLHWYQQKPGQAPRLLIYKVSNRFSGVPDRFSGSGSGTDFTLKISRVEAEDVGVYYCGQGTQVPYTFGQGTKLEIK |
| 0.97 | CE115HA000/GLS3000 R24S (antibody, IgG1, name in Kabat numbering, V domains shown, one-arm IgG1) VH: QVQLVESGGGVVQPGRSLRLSCAASGFTFSNAWMHWVRQAPGKGLEWVAQIKAKSNNYATYYAESVKGRFTISRDDSKNSLYLQMNSLKTEDTAVYYCRYVHYGAYYGVDAWGQGTTVTVSS VL: DIVMTQSPLSLPVTPGEPASISCSSSQSLVHSNRNTYLHWYQQKPGQAPRLLIYKVSNRFSGVPDRFSGSGSGTDFTLKISRVEAEDVGVYYCGQGTQVPYTFGQGTKLEIK |
